Assay results reported in patent publication US20130315910A1 (Xencor, published 2013).

What was measured:
[1] = biological target: T1, human FcγRIIb receptor protein (R&D Systems) (human, UniProt P31994 46-217); test: SPR
T1 construct: Bought protein injected over captured antibody in Biacore; also called CD32b
T1 sequence (looked up): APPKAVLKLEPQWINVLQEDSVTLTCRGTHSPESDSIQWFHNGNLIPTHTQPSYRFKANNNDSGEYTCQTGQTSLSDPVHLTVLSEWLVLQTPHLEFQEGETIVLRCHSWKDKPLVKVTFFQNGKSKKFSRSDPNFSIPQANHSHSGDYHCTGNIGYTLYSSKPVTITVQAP
Protocol: (§1) Variants were screened for receptor affinity using Biacore™ technology, also referred to as Biacore herein, a surface plasmon resonance (SPR) based technology for studying biomolecular interactions in real time. SPR measurements were performed using a Biacore 3000 instrument (Biacore, Piscataway, N.J.). A protein A/G (Pierce Biotechnology) CM5 biosensor chip (Biacore) was generated using a standard primary amine coupling protocol. All measurements were performed using HBS-EP buffer (10 mM HEPES pH 7.4, 0.15 M NaCl, 3 mM EDTA, 0.005% vol/vol surfactant P20, Biacore). Antibodies at 20 nM or 50 nM in HBS-EP buffer were immobilized on the protein A/G surface and FcγRs were injected. After each cycle, the surface was regenerated by injecting glycine buffer (10 mM, pH 1.5). Data were processed by zeroing time and response before the injection of FcγR and by subtracting appropriate nonspecific signals (response of reference channel and injection of running buffer). Kinetic analyses were performed by global fitting of binding data with a 1:1 Langmuir binding model using BIAevaluation software (Biacore).

[2] = biological target: T2, human FcγRIIa (131R), His- and GST-tagged (human, UniProt P12318 34-217); test: SPR
T2 construct: Expressed in HEK293T cells, purified by nickel chromatography; also called R131 FcγRIIa; not shown: 6xHis and GST tags of the pTT5 vector
T2 sequence (looked up): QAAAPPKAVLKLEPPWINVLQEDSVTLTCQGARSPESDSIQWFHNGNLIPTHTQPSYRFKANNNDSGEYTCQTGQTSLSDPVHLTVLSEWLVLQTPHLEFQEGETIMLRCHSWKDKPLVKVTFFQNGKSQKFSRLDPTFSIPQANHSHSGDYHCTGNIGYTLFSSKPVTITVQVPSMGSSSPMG
Protocol: as §1

Row | Binder | binding result [1] | Fold vs WT IgG1 [2] | Kd [2] | Fold vs WT IgG1 [1] | Kd [1] | binding result [2]
1 | G236H (antibody, human IgG1, kappa, HuAM4G7 anti-CD19 IgG1 (m1) with this Fc substitution, EU index; copies: 2 + 2) heavy: not shown light: DIVMTQSPATLSLSPGERATLSCRSSKSLQNVNGNTYLYWFQQKPGQSPQLLIYRMSNLNSGVPDRFSGSGSGTEFTLTISSLEPEDFAVYYCMQHLEYPITFGAGTKLEIKRTVAAPSVFIFPPSDEQLKSGTASVVCLLNNFYPREAKVQWKVDNALQSGNSQESVTEQDSKDSTYSLSSTLTLSKADYEKHKVYACEVTHQGLSSPVTKSFNRGEC | no binding | 0.135 fold | 6.35 µM | – | – | –
2 | L234S (antibody, human IgG1, kappa, HuAM4G7 anti-CD19 IgG1 (m1) with this Fc substitution, EU index; copies: 2 + 2) heavy: not shown light: DIVMTQSPATLSLSPGERATLSCRSSKSLQNVNGNTYLYWFQQKPGQSPQLLIYRMSNLNSGVPDRFSGSGSGTEFTLTISSLEPEDFAVYYCMQHLEYPITFGAGTKLEIKRTVAAPSVFIFPPSDEQLKSGTASVVCLLNNFYPREAKVQWKVDNALQSGNSQESVTEQDSKDSTYSLSSTLTLSKADYEKHKVYACEVTHQGLSSPVTKSFNRGEC | – | 0.693 fold | 1.24 µM | 0.192 fold | 7.64 µM | –
3 | G236I (antibody, human IgG1, kappa, HuAM4G7 anti-CD19 IgG1 (m1) with this Fc substitution, EU index; copies: 2 + 2) heavy: not shown light: DIVMTQSPATLSLSPGERATLSCRSSKSLQNVNGNTYLYWFQQKPGQSPQLLIYRMSNLNSGVPDRFSGSGSGTEFTLTISSLEPEDFAVYYCMQHLEYPITFGAGTKLEIKRTVAAPSVFIFPPSDEQLKSGTASVVCLLNNFYPREAKVQWKVDNALQSGNSQESVTEQDSKDSTYSLSSTLTLSKADYEKHKVYACEVTHQGLSSPVTKSFNRGEC | no binding | – | – | – | – | no binding
4 | G236Y (antibody, human IgG1, kappa, HuAM4G7 anti-CD19 IgG1 (m1) with this Fc substitution, EU index; copies: 2 + 2) heavy: not shown light: DIVMTQSPATLSLSPGERATLSCRSSKSLQNVNGNTYLYWFQQKPGQSPQLLIYRMSNLNSGVPDRFSGSGSGTEFTLTISSLEPEDFAVYYCMQHLEYPITFGAGTKLEIKRTVAAPSVFIFPPSDEQLKSGTASVVCLLNNFYPREAKVQWKVDNALQSGNSQESVTEQDSKDSTYSLSSTLTLSKADYEKHKVYACEVTHQGLSSPVTKSFNRGEC | no binding | – | – | – | – | no binding
5 | G237P (antibody, human IgG1, kappa, HuAM4G7 anti-CD19 IgG1 (m1) with this Fc substitution, EU index; copies: 2 + 2) heavy: not shown light: DIVMTQSPATLSLSPGERATLSCRSSKSLQNVNGNTYLYWFQQKPGQSPQLLIYRMSNLNSGVPDRFSGSGSGTEFTLTISSLEPEDFAVYYCMQHLEYPITFGAGTKLEIKRTVAAPSVFIFPPSDEQLKSGTASVVCLLNNFYPREAKVQWKVDNALQSGNSQESVTEQDSKDSTYSLSSTLTLSKADYEKHKVYACEVTHQGLSSPVTKSFNRGEC | – | 0.00859 fold | 100 µM | 0.0147 fold | 100 µM | –
6 | L234I (antibody, human IgG1, kappa, HuAM4G7 anti-CD19 IgG1 (m1) with this Fc substitution, EU index; copies: 2 + 2) heavy: not shown light: DIVMTQSPATLSLSPGERATLSCRSSKSLQNVNGNTYLYWFQQKPGQSPQLLIYRMSNLNSGVPDRFSGSGSGTEFTLTISSLEPEDFAVYYCMQHLEYPITFGAGTKLEIKRTVAAPSVFIFPPSDEQLKSGTASVVCLLNNFYPREAKVQWKVDNALQSGNSQESVTEQDSKDSTYSLSSTLTLSKADYEKHKVYACEVTHQGLSSPVTKSFNRGEC | – | 0.0554 fold | 15.5 µM | 0.108 fold | 13.6 µM | –
7 | L234F/G236N (antibody, human IgG1, kappa, HuAM4G7 anti-CD19 IgG1 (m1) with these Fc substitutions, EU index; copies: 2 + 2) heavy: not shown light: DIVMTQSPATLSLSPGERATLSCRSSKSLQNVNGNTYLYWFQQKPGQSPQLLIYRMSNLNSGVPDRFSGSGSGTEFTLTISSLEPEDFAVYYCMQHLEYPITFGAGTKLEIKRTVAAPSVFIFPPSDEQLKSGTASVVCLLNNFYPREAKVQWKVDNALQSGNSQESVTEQDSKDSTYSLSSTLTLSKADYEKHKVYACEVTHQGLSSPVTKSFNRGEC | no binding | – | – | – | – | no binding
8 | G237Y (antibody, human IgG1, kappa, HuAM4G7 anti-CD19 IgG1 (m1) with this Fc substitution, EU index; copies: 2 + 2) heavy: not shown light: DIVMTQSPATLSLSPGERATLSCRSSKSLQNVNGNTYLYWFQQKPGQSPQLLIYRMSNLNSGVPDRFSGSGSGTEFTLTISSLEPEDFAVYYCMQHLEYPITFGAGTKLEIKRTVAAPSVFIFPPSDEQLKSGTASVVCLLNNFYPREAKVQWKVDNALQSGNSQESVTEQDSKDSTYSLSSTLTLSKADYEKHKVYACEVTHQGLSSPVTKSFNRGEC | – | 0.902 fold | 0.952 µM | 0.33 fold | 4.45 µM | –
9 | G237L (antibody, human IgG1, kappa, HuAM4G7 anti-CD19 IgG1 (m1) with this Fc substitution, EU index; copies: 2 + 2) heavy: not shown light: DIVMTQSPATLSLSPGERATLSCRSSKSLQNVNGNTYLYWFQQKPGQSPQLLIYRMSNLNSGVPDRFSGSGSGTEFTLTISSLEPEDFAVYYCMQHLEYPITFGAGTKLEIKRTVAAPSVFIFPPSDEQLKSGTASVVCLLNNFYPREAKVQWKVDNALQSGNSQESVTEQDSKDSTYSLSSTLTLSKADYEKHKVYACEVTHQGLSSPVTKSFNRGEC | no binding | – | – | – | – | no binding
10 | G236K (antibody, human IgG1, kappa, HuAM4G7 anti-CD19 IgG1 (m1) with this Fc substitution, EU index; copies: 2 + 2) heavy: not shown light: DIVMTQSPATLSLSPGERATLSCRSSKSLQNVNGNTYLYWFQQKPGQSPQLLIYRMSNLNSGVPDRFSGSGSGTEFTLTISSLEPEDFAVYYCMQHLEYPITFGAGTKLEIKRTVAAPSVFIFPPSDEQLKSGTASVVCLLNNFYPREAKVQWKVDNALQSGNSQESVTEQDSKDSTYSLSSTLTLSKADYEKHKVYACEVTHQGLSSPVTKSFNRGEC | – | 0.00859 fold | 100 µM | 0.0147 fold | 100 µM | –
11 | L234P (antibody, human IgG1, kappa, HuAM4G7 anti-CD19 IgG1 (m1) with this Fc substitution, EU index; copies: 2 + 2) heavy: not shown light: DIVMTQSPATLSLSPGERATLSCRSSKSLQNVNGNTYLYWFQQKPGQSPQLLIYRMSNLNSGVPDRFSGSGSGTEFTLTISSLEPEDFAVYYCMQHLEYPITFGAGTKLEIKRTVAAPSVFIFPPSDEQLKSGTASVVCLLNNFYPREAKVQWKVDNALQSGNSQESVTEQDSKDSTYSLSSTLTLSKADYEKHKVYACEVTHQGLSSPVTKSFNRGEC | – | 0.0141 fold | 60.7 µM | 0.0644 fold | 22.8 µM | –
12 | G236L (antibody, human IgG1, kappa, HuAM4G7 anti-CD19 IgG1 (m1) with this Fc substitution, EU index; copies: 2 + 2) heavy: not shown light: DIVMTQSPATLSLSPGERATLSCRSSKSLQNVNGNTYLYWFQQKPGQSPQLLIYRMSNLNSGVPDRFSGSGSGTEFTLTISSLEPEDFAVYYCMQHLEYPITFGAGTKLEIKRTVAAPSVFIFPPSDEQLKSGTASVVCLLNNFYPREAKVQWKVDNALQSGNSQESVTEQDSKDSTYSLSSTLTLSKADYEKHKVYACEVTHQGLSSPVTKSFNRGEC | no binding | – | – | – | – | no binding
13 | G237V (antibody, human IgG1, kappa, HuAM4G7 anti-CD19 IgG1 (m1) with this Fc substitution, EU index; copies: 2 + 2) heavy: not shown light: DIVMTQSPATLSLSPGERATLSCRSSKSLQNVNGNTYLYWFQQKPGQSPQLLIYRMSNLNSGVPDRFSGSGSGTEFTLTISSLEPEDFAVYYCMQHLEYPITFGAGTKLEIKRTVAAPSVFIFPPSDEQLKSGTASVVCLLNNFYPREAKVQWKVDNALQSGNSQESVTEQDSKDSTYSLSSTLTLSKADYEKHKVYACEVTHQGLSSPVTKSFNRGEC | – | 0.0342 fold | 25.1 µM | 0.147 fold | 10 µM | –
14 | G237Q (antibody, human IgG1, kappa, HuAM4G7 anti-CD19 IgG1 (m1) with this Fc substitution, EU index; copies: 2 + 2) heavy: not shown light: DIVMTQSPATLSLSPGERATLSCRSSKSLQNVNGNTYLYWFQQKPGQSPQLLIYRMSNLNSGVPDRFSGSGSGTEFTLTISSLEPEDFAVYYCMQHLEYPITFGAGTKLEIKRTVAAPSVFIFPPSDEQLKSGTASVVCLLNNFYPREAKVQWKVDNALQSGNSQESVTEQDSKDSTYSLSSTLTLSKADYEKHKVYACEVTHQGLSSPVTKSFNRGEC | – | 0.0859 fold | 10 µM | 0.147 fold | 10 µM | –
15 | G236Q (antibody, human IgG1, kappa, HuAM4G7 anti-CD19 IgG1 (m1) with this Fc substitution, EU index; copies: 2 + 2) heavy: not shown light: DIVMTQSPATLSLSPGERATLSCRSSKSLQNVNGNTYLYWFQQKPGQSPQLLIYRMSNLNSGVPDRFSGSGSGTEFTLTISSLEPEDFAVYYCMQHLEYPITFGAGTKLEIKRTVAAPSVFIFPPSDEQLKSGTASVVCLLNNFYPREAKVQWKVDNALQSGNSQESVTEQDSKDSTYSLSSTLTLSKADYEKHKVYACEVTHQGLSSPVTKSFNRGEC | – | 0.0859 fold | 10 µM | 0.147 fold | 10 µM | –
16 | G236W (antibody, human IgG1, kappa, HuAM4G7 anti-CD19 IgG1 (m1) with this Fc substitution, EU index; copies: 2 + 2) heavy: not shown light: DIVMTQSPATLSLSPGERATLSCRSSKSLQNVNGNTYLYWFQQKPGQSPQLLIYRMSNLNSGVPDRFSGSGSGTEFTLTISSLEPEDFAVYYCMQHLEYPITFGAGTKLEIKRTVAAPSVFIFPPSDEQLKSGTASVVCLLNNFYPREAKVQWKVDNALQSGNSQESVTEQDSKDSTYSLSSTLTLSKADYEKHKVYACEVTHQGLSSPVTKSFNRGEC | – | 0.0859 fold | 10 µM | 0.147 fold | 10 µM | –
17 | G236M (antibody, human IgG1, kappa, HuAM4G7 anti-CD19 IgG1 (m1) with this Fc substitution, EU index; copies: 2 + 2) heavy: not shown light: DIVMTQSPATLSLSPGERATLSCRSSKSLQNVNGNTYLYWFQQKPGQSPQLLIYRMSNLNSGVPDRFSGSGSGTEFTLTISSLEPEDFAVYYCMQHLEYPITFGAGTKLEIKRTVAAPSVFIFPPSDEQLKSGTASVVCLLNNFYPREAKVQWKVDNALQSGNSQESVTEQDSKDSTYSLSSTLTLSKADYEKHKVYACEVTHQGLSSPVTKSFNRGEC | – | 0.0859 fold | 10 µM | 0.147 fold | 10 µM | –
